Data: patent publication US8314210B2, “Compositions and methods for the generation of MHC class II compounds by peptide exchange” (priority 2002, dated 2012)
Peptide text beside a SMILES is read from it. * marks the point of attachment. Dnp = O=[N+]([O-])c1ccc(*)c([N+](=O)[O-])c1; Ahx = NCCCCCC(=O)O

Tests used:
Format in all cases: binding
HLA-DR4 (DRA, DRB1*0401) = molecular target: T1, HLA-DR4 (DRA, DRB1*0401) (Homo sapiens, UniProt P01903+P01911, A100K/A169T/F76Y/I96L/K127E/L162R/M171V/N62H/P40V/Q125Y/R42H/S133A/S149N/S66Y/V115G/V209L/W38E); test: biochemical; conditions: Table 2, DRB1*0401, read-out: (μM) [head prints unit only
T1 construct: were attached to the 3′ end of the DRα and DRβ ectodomains; CLIP peptide […]; made in house

DRB1*0401 = molecular target: T2, DRB1*0401 (Homo sapiens, UniProt P01903+P01911, A100K/A169T/F76Y/I96L/K127E/L162R/M171V/N62H/P40V/Q125Y/R42H/S133A/S149N/S66Y/V115G/V209L/W38E); conditions: 3.3 μM *DR/CLIP, 50 μM DNP-labeled peptide, pH 5.2, overnight 30° C.
T2 construct: were attached to the 3′ end of the DRα and DRβ ectodomains; CLIP peptide […]; made in house

DR4 = molecular target: T3, DR4 (Homo sapiens, UniProt P01903+P01911, A100K/A169T/F76Y/I96L/K127E/L162R/M171V/N62H/P40V/Q125Y/R42H/S133A/S149N/S66Y/V115G/V209L/W38E); test: Kinetics of CLIP dissociation and peptide association; conditions: DR4, pH 5.2
T3 construct: CLIP peptide […]; made in house

DR4 (DRA, DRB1*0401) = molecular target: T4, DR4 (DRA, DRB1*0401) (Homo sapiens, UniProt P01903+P01911, A100K/A169T/F76Y/I96L/K127E/L162R/M171V/N62H/P40V/Q125Y/R42H/S133A/S149N/S66Y/V115G/V209L/W38E); test: Competition assay of HCV peptides, biotinylated HA (306-318) on thrombin-cleaved DR4/CLIP; conditions: competitor 30 nM to 10 μM vs 30 nM labeled HA peptide
T4 construct: were attached to the 3′ end of the DRα and DRβ ectodomains; CLIP peptide […]; made in house

`CC[C@H](C)[C@H](NC(=O)[C@H](CC(N)=O)NC(=O)[C@H](CCCCN)NC(=O)[C@H](Cc1ccccc1)NC(=O)[C@H](Cc1ccccc1)NC(=O)[C@H](Cc1c[nH]cn1)NC(=O)[C@@H](NC(=O)[C@@H](NC(=O)CCCCCNc1ccc([N+](=O)[O-])cc1[N+](=O)[O-])C(C)C)C(C)C)C(=O)N[C@H](C(=O)N[C@H](C(=O)N1CCC[C@H]1C(=O)N[C@@H](CCCNC(=N)N)C(=O)N[C@H](C(=O)N1CCC[C@H]1C(=O)N1CCC[C@H]1C(=O)O)[C@@H](C)O)[C@@H](C)O)C(C)C` [MBP(88-102)] ({Dnp-Ahx}-VVHFFKNIVTPRTPP-OH) was tested, and the IC50 (HLA-DR4 (DRA, DRB1*0401)) was 0.3 µM.
With `CC[C@H](C)[C@H](NC(=O)[C@H](CCC(N)=O)NC(=O)[C@H](CCC(=O)O)NC(=O)CCCCCNc1ccc([N+](=O)[O-])cc1[N+](=O)[O-])C(=O)NCC(=O)N[C@@H](Cc1c[nH]c2ccccc12)C(=O)N[C@@H](CCSC)C(=O)N[C@H](C(=O)N[C@@H](CC(N)=O)C(=O)N[C@@H](CC(N)=O)C(=O)N1CCC[C@H]1C(=O)N1CCC[C@H]1C(=O)N[C@H](C(=O)N1CCC[C@H]1C(=O)N[C@H](C(=O)NCC(=O)O)C(C)C)[C@@H](C)CC)[C@@H](C)O` [p24 (113-127)] ({Dnp-Ahx}-EQIGWMTNNPPIPVG-OH; C-terminus assumed) the “Loading Efficiency (%)” value (DRB1*0401) was 79%.
With `CC[C@H](C)[C@H](NC(=O)[C@H](CO)NC(=O)[C@@H](NC(=O)[C@@H]1CCCN1C(=O)[C@H](CO)NC(=O)[C@H](Cc1ccc(O)cc1)NC(=O)[C@H](CCSC)NC(=O)[C@H](CCCNC(=N)N)NC(=O)[C@@H](NC(=O)[C@@H](NC(=O)[C@H](CCCCN)NC(=O)[C@H](CC(N)=O)NC(=O)[C@H](CC(C)C)NC(=O)CCCCCNc1ccc([N+](=O)[O-])cc1[N+](=O)[O-])[C@@H](C)CC)C(C)C)C(C)C)C(=O)O` [p24 (138-150)/Val] ({Dnp-Ahx}-LNKIVRMYSPVSI-OH; C-terminus assumed) the “Loading Efficiency (%)” value (DRB1*0401) was 90%.
For “CGGGPVSKMRMATPLLMQA [Alexa-488 labeled CLIP peptide]”, the “time by which almost all of the bound CLIP peptide had dissociated” value (DR4) was ≤ 30 min.
In the case of “aa 1241-1260: HCV peptide aa 1241-1260 tested for DR4 binding, printed with SEQ ID NO:19 (GYKVLVLNPSVAATL; listed as Homo sapiens)”, the “binding to DR4” value (DR4 (DRA, DRB1*0401)) is reported as “bound to DR4”.
In the case of “aa 1581-1600: HCV peptide aa 1581-1600 tested for DR4 binding, printed with SEQ ID NO:20”, the “binding to DR4” value (DR4 (DRA, DRB1*0401)) is reported as “bound to DR4”.
With “aa 1771-1790: HCV peptide aa 1771-1790 tested for DR4 binding, printed with SEQ ID NO:21 (SGIQYLAGLSTLPGNPAIASL; listed as Homo sapiens)” the “binding to DR4” value (DR4 (DRA, DRB1*0401)) was “bound to DR4”.
